# B1: 27536 (antibody, V domains shown)
# VH: QVQLVQSGAEVKKPGSSVKVSCKASGGTFSNYAISWVRQAPGQGLEWMGGIIPIFGTANYAQKFQGRVTITADESTSTAYMELSSLRSEDTAVYYCARDTLYSSGAYYGYNVWGQGTMVTVSS
# VL: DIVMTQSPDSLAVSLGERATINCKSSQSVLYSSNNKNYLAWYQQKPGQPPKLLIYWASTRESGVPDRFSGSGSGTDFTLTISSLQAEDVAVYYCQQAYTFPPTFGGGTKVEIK
# B2: 27549 (antibody, V domains shown)
# VH: QVQLVESGGGVVQPGRSLRLSCAASGFTFSSYGMNWVRQAPGKGLEWVAVIWYDGSNKYYADSVKGRFTISRDNSKNTLYLQMNSLRAEDTAVYYCARDLGGYSYGEPYYYYYGMDVWGQGTTVTVSS
# VL: EIVLTQSPGTLSLSPGERATLSCRASQSVSSDYLAWYQQKPGQAPRLLIYGASSRATGIPDRFSGSGSGTDFTLTISRLEPEDFAVYYCQQAHSSPYTFGGGTKVEIKR
# B3: 27568 (antibody, V domains shown)
# VH: QVQLVQSGAEVKKPGSSVKVPCKASGGTFSSYAISWVRQAPEQGLEWMGSIIPIFGTANYAQKFQGRVTITADESTSTAYMELSSLRSEDTAVYYCAGESGGYRDHKLDVWGQGTVVTVSS
# VL: EIVLTQSPATLSLSPGERATLSCRASQSVSSYLAWYQQKPGQAPRLLIYDASNRATGIPARFSGSGSGTDFTLTISSLEPEDFAVYYCQQSVFWPITFGGGTKVEIKR
# B4: 27535 (antibody, V domains shown)
# VH: QVQLVQSGAEVKKPGSSVKVSCKASGGTFSSYAISWVRQAPGQGLEWMGGIIPIFGTANYAQKFQGRVTITADESTSTAYMELSSLRSEDTAVYYCARDTPRWRYHYFDYWGQGTLVTVSS
# VL: EIVLTQSPATLSLSPGERATLSCRASQSVSSYLAWYQQKPGQAPRLLIYDASKRATGIPARFSGSGSGTDFTLTISSLEPEDFAVYYCQQVLNYPLTFGGGTKVEIKR
# B5: 27579 (antibody, V domains shown)
# VH: QVQLVQSGAEVKEPGASVKVSCKAPGYTFTSYYMHWVRQAPGQGLEWMGVINPSGGSTSYAQKFQGRVTMTRDTSTSTVYMELSSLRSEDTAVYYCARGKREGGTEYLRHWGQGTLVTVSS
# VL: EIVLTQSPGTLSLSPGERATLSCRASQSVSSSYLAWYQQKPGQAPRLLIYGASSRATGIPDRFSGSGSGTDFTLTISRLEPEDFAVYYCQQYHSYITFGGGTKVEIK
# B6: 31414 (antibody, human IgG4 S228P, kappa, V domains shown)
# VH: QVQLVQSGAEVKKPGASVKVSCKASGYTFKSYEMHWVRQAPGQGLEWMGRINPSVGSTWYAQKFQGRVTMTRDTSTSTVYMELSSLRSEDTAVYYCARGKREGGTEYLRNWGQGTLVTVSS
# VL: EIVLTQSPGTLSLSPGERATLSCRASQSVSSSYLAWYQQKPGQAPRLLIYGASSRATGIPDRFSGSGSGTDFTLTISRLEPEDFAVYYCQQYHSYITFGGGTKVEIKR
# B7: 31418 (antibody, V domains shown)
# VH: QVQLVQSGAEVKKPGASVKVSCKASGYTFKSYEMHWVRQAPGQGLEWMGRINPSGGSTWYAQKFQGRVTMTRDTSTSTVYMELSSLRSEDTAVYYCARGKREGGTEYLRHWGQGTLVTVSS
# VL: EIVLTQSPGTLSLSPGERATLSCRASQSVSSSYLAWYQQKPGQAPRLLIYGASSRATGIPDRFSGSGSGTDFTLTISRLEPEDFAVYYCQQYYFYITFGGGTKVEIKR
# B8: 29872 (antibody, V domains shown)
# VH: QVQLVQSGAEVKKPGASVKVSCKASGYTFKSYEMHWVRQAPGQGLEWMGRINPSVGSTWYAQKFQGRVTMTRDTSTSTVYMELSSLRSEDTAVYYCARGKREGGTEYLRHWGQGTLVTVSS
# VL: EIVLTQSPGTLSLSPGERATLSCRASQSVSSSYLAWYQQKPGQAPRLLIYGASSRATGIPDRFSGSGSGTDFTLTISRLEPEDFAVYYCQQYHSYITFGGGTKVEIK
# B9: 31430 (antibody, V domains shown)
# VH: QVQLVQSGAEVKKPGASVKVSCKASGYTFKSYEMHWVRQAPGQGLEWMGRINPSGGSTWYAQKFQGRVTMTRDTSTSTVYMELSSLRSEDTAVYYCARGKREGGTEYLRHWGQGTLVTVSS
# VL: EIVLTQSPGTLSLSPGERATLSCEASQSVSYSYLAWYQQKPGQAPRLLIYGASSRANGIPDRFSGSGSGTDFTLTISRLEPEDFAVYYCQQYHSALTFGGGTKVEIKR
# B10: 31429 (antibody, V domains shown)
# VH: QVQLVQSGAEVKKPGASVKVSCKASGYTFVSYFMHWVRQAPGQGLEWMGSINPRGGSTSYAQKFQGRVTMTRDTSTSTVYMELSSLRSEDTAVYYCARGKREGGTEYLRHWGQGTLVTVSS
# VL: EIVLTQSPGTLSLSPGERATLSCRASQYVSSSYLAWYQQKPGQAPRLLIYYASNRATGIPDRFSGSGSGTDFTLTISRLEPEDFAVYYCQQYHSGITFGGGTKVEIK
# B11: 31891 (antibody, V domains shown)
# VH: QVQLVQSGAEVKKPGASVKVSCKASGYIFKSYEMHWVRQAPGQGLEWMGRINPSVGSTWYAQKFQGRVTMTRDTSTSTVYMELSSLRSEDTAVYYCARGKREGGTEYLRVWGQGTLVTVSS
# VL: EIVLTQSPGTLSLSPGERATLSCRASQSVSSSYLAWYQQKPGQAPRLLIYYASSRAYGIPDRFSGSGSGTDFTLTISRLEPEDFAVYYCQQYHNAITFGGGTKVEIKR
# B12: 31431 (antibody, V domains shown)
# VH: QVQLVQSGAEVKKPGASVKVSCKASGYTFTSYQMHWVRQAPGQGLEWMGRINPSGGSTWYAQKFQGRVTMTRDTSTSTVYMELSSLRSEDTAVYYCARGKREGGTEYLRHWGQGTLVTVSS
# VL: EIVLTQSPGTLSLSPGERATLSCRASQSVASSYLAWYQQKPGQAPRLLIYGASNRHTGIPDRFSGSGSGTDFTLTISRLEPEDFAVYYCQQYHGGITFGGGTKVEIK
# B13: 31415 (antibody, V domains shown)
# VH: QVQLVQSGAEVKKPGASVKVSCKASGYTFTSYQMHWVRQAPGQGLEWMGRINPSGGSTWYAQKFQGRVTMTRDTSTSTVYMELSSLRSEDTAVYYCARGKREGGTEYLRSWGQGTLVTVSS
# VL: EIVLTQSPGTLSLSPGERATLSCRASQSVSSSYLAWYQQKPGQAPRLLIYGASSRATGIPDRFSGSGSGTDFTLTISRLEPEDFAVYYCQQYHSYITFGGGTKVEIKR
# Key:
# [1] = target: T1, cynomolgus macaque (Macaca fascicularis) CD39 on cells (cynomolgus macaque (Macaca fascicularis), UniProt P49961 7-510 (human entry)); assay: flow cytometry, 100 nM IgG, cCD39-CHO cells; MFI ratio to parental CHO
# T1 construct: CHO cells engineered to express cyno CD39, or primary cyno B cells and monocytes; also called cyno CD39; cCD39
# T1 chain: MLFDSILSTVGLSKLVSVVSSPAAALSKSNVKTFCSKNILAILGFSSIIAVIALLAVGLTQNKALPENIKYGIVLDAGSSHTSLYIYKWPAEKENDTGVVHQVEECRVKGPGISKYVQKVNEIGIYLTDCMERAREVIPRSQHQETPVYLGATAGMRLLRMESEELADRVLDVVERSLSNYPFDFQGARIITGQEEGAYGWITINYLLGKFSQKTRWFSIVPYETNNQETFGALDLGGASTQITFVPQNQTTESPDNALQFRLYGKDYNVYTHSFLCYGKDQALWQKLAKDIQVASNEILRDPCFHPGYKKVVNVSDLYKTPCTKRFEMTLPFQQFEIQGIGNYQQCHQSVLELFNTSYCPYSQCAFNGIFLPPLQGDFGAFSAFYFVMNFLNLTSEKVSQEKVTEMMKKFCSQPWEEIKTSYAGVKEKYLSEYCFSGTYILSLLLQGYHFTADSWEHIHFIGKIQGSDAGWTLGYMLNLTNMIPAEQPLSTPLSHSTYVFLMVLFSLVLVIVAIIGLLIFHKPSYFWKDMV
# Description: (§1) 100 nanomolar IgGs (each antibody is indicated as a unique clone number in the FIG.) were incubated at […] 30 minutes on ice in phosphate buffered saline (PBS) with parental CHO cells or CHO cells engineered to express either human or cynomolgus macaque (Macaca fascicularis) CD39 (CHO CD39 cells). Cells were then washed with ice cold PBS and incubated with a fluorescently labeled goat-anti-human IgG for 20 minutes on ice. Cells were washed and resuspended in ice cold PBS prior to analysis by flow cytrometry.
# [2] = target: T2, human CD39 on cells (human, UniProt P49961 1-510); assay: flow cytometry, 100 nM IgG, hCD39-CHO cells; MFI ratio to parental CHO
# T2 construct: One molecule for all cells that carry human CD39; the cell is named under assay; also called hCD39; cellular CD39
# T2 sequence: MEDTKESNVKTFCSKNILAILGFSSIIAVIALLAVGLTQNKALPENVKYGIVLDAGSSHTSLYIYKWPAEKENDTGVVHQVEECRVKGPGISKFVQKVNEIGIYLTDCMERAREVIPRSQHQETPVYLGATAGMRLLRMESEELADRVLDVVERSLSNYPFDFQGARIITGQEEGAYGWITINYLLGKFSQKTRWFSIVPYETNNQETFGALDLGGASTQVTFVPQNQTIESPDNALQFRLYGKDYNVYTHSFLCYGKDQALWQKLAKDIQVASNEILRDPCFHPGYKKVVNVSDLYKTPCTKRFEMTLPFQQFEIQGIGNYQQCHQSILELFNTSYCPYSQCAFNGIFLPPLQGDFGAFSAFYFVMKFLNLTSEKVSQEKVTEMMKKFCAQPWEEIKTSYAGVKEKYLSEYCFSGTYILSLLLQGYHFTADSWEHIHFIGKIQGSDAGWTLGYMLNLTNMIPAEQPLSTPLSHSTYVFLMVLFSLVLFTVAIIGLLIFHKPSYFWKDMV
# Description: as §1
# [3] = target: T3, rhCD39-ECD-His (R&D Systems) (human, UniProt P49961 38-478); assay: BLI (Octet), IgG on anti-human Fc sensor, rhCD39-ECD-His 10-300 nM, 1:1 fit
# T3 construct: Bought protein; that entry runs on through the C-terminal transmembrane and cytoplasmic residues; also called recombinant human CD39 extracellular domain; soluble recombinant human CD39 (ENTDP1) ECD; not shown: His tag
# T3 sequence: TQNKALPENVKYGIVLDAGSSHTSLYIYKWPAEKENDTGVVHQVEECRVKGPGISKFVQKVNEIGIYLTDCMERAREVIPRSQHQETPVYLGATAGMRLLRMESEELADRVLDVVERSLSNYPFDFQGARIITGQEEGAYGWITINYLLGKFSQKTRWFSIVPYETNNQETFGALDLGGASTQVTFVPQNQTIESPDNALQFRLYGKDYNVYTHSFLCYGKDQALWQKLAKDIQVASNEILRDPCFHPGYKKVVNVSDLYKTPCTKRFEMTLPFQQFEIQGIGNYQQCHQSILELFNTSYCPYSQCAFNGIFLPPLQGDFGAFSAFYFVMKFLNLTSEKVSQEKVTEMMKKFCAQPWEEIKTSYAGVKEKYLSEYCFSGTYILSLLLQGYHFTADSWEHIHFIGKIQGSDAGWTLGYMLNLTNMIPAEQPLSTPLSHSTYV
# Description: The kinetic data was globally fit with a simple 1:1 Langmuir binding model to yield on-rate (kon) and off-rate (koff) values. The equilibrium dissociation constants (KD) were calculated from the kon and koff values.
# Binding kinetics were measured using the Octet Red96 system (ForteBio) at 25° C. in running buffer (1× Pall ForteBio Kinetics Buffer diluted into PBS or Tris pH 7.4). […] After a short baseline step in running buffer, the sensors were exposed to varying concentrations (10-300 nM) of rhCD39-ECD-His (R&D Systems) for the association step. Dissociation of the complex was monitored upon exposure of the sensors to running buffer once again. Data was processed using ForteBio Octet software with baseline subtraction, global fit and 1:1 binding model to obtain association and dissociation rates. KD was calculated from the ratio of kd to kₐ.
Binder,Cell Binding (FOB) [1] [FOB],Cell Binding (FOB) [2] [FOB],Kd [3] [nM],koff [3] [s⁻¹],kon [3] [M⁻¹ s⁻¹]
B1,113,89,114,0.00751,65900
B2,566,822,,,
B3,260,267,173,0.047,272000
B4,738,301,,,
B5,2670,1950,,,
B6,3570,1240,,,
B7,3180,1080,,,
B8,4190,1450,,,
B9,3570,1220,,,
B10,3800,1290,,,
B11,4650,1030,,,
B12,3530,1240,,,
B13,3360,1170,,,

# From patent US20250026850A1 (TRISHULA THERAPEUTICS, published 2025)
